Experimental data from patent publication US10214741B2, “Methods and compositions for inhibiting retinopathy of prematurity” (University of Utah Research Foundation, priority 2014, dated 2019).

Assays:
macrophages = assay: Macrophages in rat ROP and ROP+SO models; type: in vivo; conditions: 1 uL intravitreal
Text: Activation of NADPH oxidase generally requires aggregation of a NOX isoform (NOX1-5, Duox1 or 2) with membrane bound p22phox; for NOX1-3 activation, aggregation with Rac1 and cytoplasmic subunits p47phox, p67phox or homologs is also required. Few studies address oxygen effects on NADPH oxidase regulated signaling in ROP or development. Studying NADPH oxidase in vivo is also complicated, because 1) of compensation from NOX isoforms or homologs, which differ in different tissues, and 2) most inhibitors are not specific. In this example, oxygen stresses were varied by using 3 different OIR models: ROP and ROP+SO models in rat and OIR model in mouse. NADPH oxidase-induced signaling in ECs was targeted by reducing leukocyte/macrophages, which generate ROS through NADPH oxidase, or with a transgenic mouse. In rat ROP and ROP+SO models, macrophages ˜75% (FIG. 7A) were reduced with 1 uL intravitreal clodronate). […] Macrophages have multiple effects on angiogenesis including through non-NADPH oxidase mechanisms, so a more specific method was used to study NADPH oxidase-related signaling. NOX 1, 2, 4 are known to be involved in pathologic retinal angiogenesis; NOX2 is in macrophages and ECs. Therefore p47phox−/− mice were used to reduce NADPH oxidase activation from NOX 1-3. […]

rat ROP model = assay: Lectin-stained retinal flat mounts, IVNV and AVA, rat ROP model (rat 50/10 OIR model); type: in vivo; conditions: 1 uL intravitreal, ROP model
retina [1] = conditions: long-term periocular treatment; cited from earlier work
rMVECs = assay: Lentivirus transduction specificity (ve-cadherin promoter) in cultured cells; type: cell-based; conditions: rMVECs vs rat MC-1s, 293T
pSTAT3 = assay: IHC densitometry of pSTAT3 colabeled with lectin, p18 rat ROP model; type: in vivo; conditions: injected at p10, 10^6 viral particles/inj, vs. luc.shRNA
STAT3 = assay: Western blot of STAT3 in 293T cotransfected with Lenti-VE-cad-GFP-driven shRNA and plasmid expressing coding sequence; type: cell-based, rat; conditions: 293Ts
Text: The strategy can be similar to knockdown of MC-expressed VEGFA, except a ve-cadherin promoter to target ECs can be used. The ve-cadherin promoter recruits polymerase II to drive miR30 embedded shRNAs. […] For control, shRNA targeted to luciferase (luc.shRNA), a nonmammalian gene, was used. Into a plasmid DNA expressing a Flag-tagged wild type (wt) coding sequence (wt-cDNA) for EPOR or VEGFR2, point mutations in the cognate region of the cDNA can be introduced where the shRNA binds to render the cDNA resistant to RISC cleavage without changing the native amino acid sequence (mut-cDNA). Then cotransfect 293T cells with either VEGFR2.shRNA or EPOR.shRNA and respective wt-cDNA or mut-cDNA. Off target effects can be determined by western blots of Flag expression or from interferon-induced genes using BLOCK-iT RNAi Stress Response Control Kit (Invitrogen, CA). Groups can be: rat EPOR.shRNAs+rat EPOR-wt-cDNA, rat EPOR. shRNAs+rat EPOR-mut-cDNA, rat VEGFR2.shRNA+rat VEGFR2-wt-cDNA or rat VEGFR2.shRNA+rat VEGFR2-mut-cDNA. Luc.shRNA and no DNA transfection can be controls. For specificity (FIG. 14A), lentiviral transduction of rECs, rat MCs (rMC-1s), human ARPE can be tested.
Using methods as in Example 5, 3 STAT3.shRNAs for knockdown in 293 Ts (FIG. 14D) were developed and tested. […]

retina [2] = assay: TUNEL staining, retinal layer thickness, caspase 3 in retina, rat ROP model; type: in vivo; conditions: compared with PBS
Protocol: Whole eye globes were fixed in 4% PFA containing 10 mM sodium orthovanadate for 10 minutes. Corneas and lenses were removed, and posterior eyecups were fixed for another 15 minutes in 4% PFA, then incubated in 30% sucrose/PBS at 4° C. overnight, and mounted in optimal cutting temperature compound (Tissue-Tek; Electron Microscopy Sciences, Hatfield, Pa.). Cryosections (12 μm) were cut sequentially and stained for immunofluorescence analysis. Cryosections were incubated with rabbit anti-phosphorylated VEGFR2 (p-VEGFR2 at Y951; Santa Cruz Biotechnology, Santa Cruz, Calif.) overnight at 4° C. After washes, sections were incubated with AlexaFluor 405 conjugated goat anti-rabbit second antibody for p-VEGFR2 and lectin for 1 hour. Sections stained with only secondary antibody and DAPI were controls. […] For p-VEGFR2 in retinal vessels, the density of p-VEGFR2 colabeling with lectin-stained ECs of the primary vascular plexus at the junctions between avascular retina and vascular retina was measured with the threshold function of the Java-based imaging software (NIH). TUNEL-positive cells colabeled with tetramethylrhodamine red (TMR red) and diamino-2-phenylindole (DAPI) were counted in retinal sections imaged at ×4 magnification. Retinal thickness was measured from ganglion cell to ONL in DAPI-stained sections captured at ×40 magnification using Java-based imaging software (NIH). […]

EPOR = EPOR expression in hRMVECs (qPCR, Western blot); type: cell-based, human; conditions: overnight treatment, vs PBS
Text: hRMVECs (Cell Systems, Kirkland, Wash.) were maintained in EGM-2 endothelial growth medium (Lonza, Walkers-ville, MD) supplemented with 5% fetal bovine serum. Cells of passage 3 to 5 were used for experiments. […]
For siRNA transfection, hRMVECs at 70% confluency were transfected in six-well plates with siRNAs targeting human EPOR, VEGFR2, or STAT3 (Life Technologies, Carlsbad, Calif.) using Lipofectamine 2000 reagent (Invitrogen by Life Technologies, Carlsbad, Calif.). A silencer selective negative control siRNA was used as control.
Total RNA of cells was extracted by TRI Reagent (Sigma-Aldrich, St. Louis, Mo.). For dissected retinas, total RNA was extracted using an RNeasy mini kit (Qiagen, Valencia, Calif.). RNA was quantified using a NanoDrop spectrophotometer (Thermo Fisher Scientific, Waltham, Mass.). cDNA was generated with the use of a high-capacity cDNA archive kit (Life Technologies, Carlsbad, Calif.). qPCR was performed on a Mastercycler ep realplex system (Eppendorf, Hauppauge, N.Y.) with the use of SYBR Green master mix (Roche Diagnostics, Indianapolis, Ind.) and primers synthesized by the core research facility of the University of Utah. Expression levels for VEGFA were normalized to the mean value of internal control β-actin. […]
Dissected retinas and hRMVECs were lysed in radioimmunoprecipitation assay buffer with 1:100 protease inhibitors (Roche Diagnostics, Indianapolis, Ind.) and 2 mmol/L sodium orthovanadate and were homogenized and centrifuged at 13,000 rpm (15,700 g) for 10 minutes at 4° C. Total protein in the supernatant fluid was quantified by a bicinchoninic acid assay (Pierce BCA; Thermo Fisher Scientific, Waltham, Mass.). […] Blots were visualized, and the relative densities of bands were calculated as described herein, using gel analysis software (UN-SCAN-IT gel, version 6.1; Silk Scientific, Orem, Utah). Relative activities were calculated as the ratio of phosphorylated to total protein or to β-actin and are expressed as fold difference compared with control. At least six samples from each group were measured and analyzed.

O=P(O)(O)C(Cl)(Cl)P(=O)(O)O [clodronate]
reduction of macrophages (macrophages): ~75% | AVA (rat ROP model): not AVA | IVNV (rat ROP model; vs. PBS): significantly reduced

CN(C)c1ccc(/C=C2\C(=O)Nc3ccccc32)cc1 [SU4312]
retinal apoptosis (retina [1]): no retinal apoptosis

B1: STAT3.shRNA2: lentivector-ve-cadherin STAT3.shRNA with the best knockdown; rat STAT3 (nucleic acid)
chain: TGCTGTTGACAGTGAGCGAATCGTGGATCTGTTCAGAAACTAGTGAAGCCACAGATGTAGTTTCTGAACAGATCCACGATCTGCCTACTGCCTCGGA
cell specificity of transduction (rMVECs): showed specificity for rat MVECs | pSTAT3/STAT3 colabeling with lectin (pSTAT3): STAT3-lectin colabeling was reduced | pSTAT3/STAT3 colabeling with lectin (pSTAT3; listed as STAT3.shRNA): reduced | STAT3 knockdown among 3 STAT3.shRNAs (STAT3): best knockdown

B2: luciferase.shRNA: control lentivector shRNA to the nonmammalian gene luciferase (nucleic acid)
DNA: TGCTGTTGACAGTGAGCGAAATGTTTACTACACTCGGATATAGTGAAGCCACAGATGTATATCCGAGTGTAGTAAACATTCTGCCTACTGCCTCGGA
TUNEL+ cells (retina [2]): increased TUNEL+ cells at P18 but not at P25 | thickness of the retina, INL or ONL (retina [2]): did not alter the thickness of the retina

B3: vascular endothelial growth factor A (protein)
chain: APMAEGGGQNHHEVVKFMDVYQRSYCHPIETLVDIFQEYPDEIEYIFKPSCVPLMRCGGCCNDEGLECVPTEESNITMQIMRIKPHQGQHIGEMSFLQHNKCECRPKKDRARQENPCGPCSERRKHLFVQDPQTCKCSCKNTDSRCKARQLELNERTCRCDKPRR
notes: growth factor used at 20 ng/mL to stimulate hRMVECs
EPOR protein (EPOR; 20 ng/mL VEGFA or 10 IU/mL EPO): increased EPOR mRNA expression (FIG. 35A) and protein levels | EPOR mRNA expression (EPOR): increased EPOR mRNA expression
